Test results as given in US20260049151A1 (SHENGHE CHINA BIOPHARMACEUTICAL, published 2026).
Like-named read-outs stand apart in the source and are kept apart here.

T1: Human TNFR2 mFc (human, UniProt P20333 23-257)
T1 construct: Bought protein; not shown: mFc
T1 sequence (looked up): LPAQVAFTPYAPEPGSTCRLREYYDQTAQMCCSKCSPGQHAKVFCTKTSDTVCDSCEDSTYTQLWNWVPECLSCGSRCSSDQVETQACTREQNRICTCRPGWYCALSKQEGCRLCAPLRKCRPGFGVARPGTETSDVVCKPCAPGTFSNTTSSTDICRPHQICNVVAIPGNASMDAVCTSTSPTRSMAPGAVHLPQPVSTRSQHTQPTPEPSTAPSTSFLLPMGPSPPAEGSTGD

T2: Human-TNFR2-His (human, UniProt P20333 23-257)
T2 construct: Bought protein; also called human TNFR2 protein; TNFR2 protein; not shown: His tag
T2 sequence (looked up): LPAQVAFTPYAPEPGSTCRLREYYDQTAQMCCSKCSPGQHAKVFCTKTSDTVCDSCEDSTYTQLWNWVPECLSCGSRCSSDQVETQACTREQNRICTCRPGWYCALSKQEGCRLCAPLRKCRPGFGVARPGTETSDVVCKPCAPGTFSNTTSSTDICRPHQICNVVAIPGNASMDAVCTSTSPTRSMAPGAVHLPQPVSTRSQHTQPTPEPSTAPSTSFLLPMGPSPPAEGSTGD


Assays:
[1] = target: T1, Human TNFR2 mFc; test: bridging ELISA: Human TNFR2 mFc coated (0.3 ug/mL), antibody titrated, then Human 4-1BB His (0.3 ug/mL), HRP anti-His detection (Example 5)
Method: Human TNFR2 mFc (manufacturer: Kaixia, CAT: TN-HM3R2, LOT: 031202) was diluted to 0.3 μg/mL with a coating solution (1×PBS, pH7.4) and coated into a 96-well ELISA plate at 100 μL/well at 4° C. overnight. The coating solution was poured off. Each well was washed with 1×PBST at 300 μL, washed 4 times with a plate washer, and patted dry on a flat paper. It was blocked with 3% skim milk powder at 300 μL/well, and incubated at 37° C. for 1 h. The blocking solution was poured off, washed 4 times with a plate washer, and patted dry on a flat paper. […] Starting at 50 nM, which was used as the initial concentration for 3-fold dilution, a total of 10 gradients were diluted, and a blank well was set up and only the diluent was added. It was incubated at 37° C. for 1 h at 100 µL/well. The liquid in the well was discarded, washed 4 times with a plate washer, and patted dry on a flat paper. Human 4-1BB His (manufacturer: Acro, CAT: 41B-H5258, LOT: 198-2146F1-W6) was diluted to 0.3 μg/mL, 100 μL was added to each well, and incubated at room temperature for 1 h. The plate was washed 3 times with PBST, and then the HRP-labeled his antibody was diluted with sample diluent at 1:5000, 100 μ L was added to each well, and incubated at room temperature for 1 h. It was washed 6 times with a plate washer, and patted dry on a flat paper. TMB color developing solution was added at 100 μL/well, and wrapped with aluminum foil. Color development was performed at 37° C. in the dark for 8 min. Termination solution 1M HCl was added to terminate the color development reaction at 100 μL/well. Readings were taken at 450 nm on an ELISA reader.

[2] = target: T3, Human 4-1BB Fc (human, UniProt Q07011 24-186); test: bridging ELISA: Human 4-1BB Fc coated (0.3 ug/mL), antibody titrated, then Human-TNFR2-His (0.3 ug/mL), HRP anti-His detection (Example 4)
T3 construct: same catalogue and lot number as Human 4-1BB His; not shown: Fc
Method: Human 4-1BB Fc (manufacturer: Acro, CAT: 41B-H5258, LOT: 198-2146F1-W6) was diluted to 0.3 μg/mL with a coating solution (1×PBS, pH7.4) and coated into a 96-well ELISA plate at 100 µL/well at 4° C. overnight. The coating solution was poured off. Each well was washed with 1×PBST at 300 μL, washed 4 times with a plate washer, and patted dry on a flat sheet. It was blocked with 3% skim milk powder at 300 μL/well, and incubated at 37° C. for 1 h. The blocking solution was poured off, washed 4 times with a plate washer, and patted dry on a flat sheet. […] Starting at 50 nM, which was used as the initial concentration for 3-fold dilution, a total of 10 gradients were diluted, and a blank well was set up and only the diluent was added. It was incubated at 37° C. for 1 h at 100 μL/well. The liquid in the well was discarded, washed 4 times with a plate washer, and patted dry on a flat paper. Human-TNFR2-His (manufacturer: Sino, CAT: 10417-H08H, LOT: LC15NO0412) was diluted to 0.3 μg/mL, 100 μL was added to each well, and incubated at room temperature for 1 h. The plate was washed 3 times with PBST, and then the HRP-labeled his antibody was diluted with sample diluent at 1:5000, 100 μ L was added to each well, and incubated at room temperature for 1 h. It was washed 6 times with a plate washer, and patted dry on a flat paper. TMB color developing solution was added at 100 μL/well, and wrapped with aluminum foil. Color development was performed at 37° C. in the dark for 8 min. Termination solution 1M HCl was added to terminate the color development reaction at 100 μL/well. Readings were taken at 450 nm on an ELISA reader.

[3] = target: T4, Human 4-1BB His (human, UniProt Q07011 24-186); test: ELISA: Human 4-1BB His coated (0.2 ug/mL), antibody titrated, goat anti-human IgG Fc detection (Example 3)
T4 construct: Bought protein; lots 198-2146F1-W6 and 2407c-214FF1-YC; also called human 4-1BB protein; 4-1BB protein; not shown: His tag
Method: (§1) Human 4-1BB His (manufacturer: Acro, CAT: 41B-H5258, LOT: 198-2146F1-W6) was diluted to 0.2 μg/mL with a coating solution (1×PBS, pH7.4), and coated in 96-well ELISA plate at 100 μL/well overnight at 4° C. The coating solution was poured off. Each well was washed with 1×PBST at 300 μL, washed 4 times with a plate washer, and patted dry on a flat paper. It was blocked with 3% skim milk powder at 300 μL/well, and incubated at 37° C. for 1 h. The blocking solution was poured off, washed 4 times with a plate washer, and patted dry on a flat paper. Negative control and positive control were set up. […] The variable region of the antibody sequence of the positive control consists of SEQ ID NO: 15 and SEQ ID NO: 19, with the addition of the constant region of human IgG1 (SEQ ID NO: 46 and SEQ ID NO: 47). The positive control and antibody were diluted to 10 μg/mL with 3% skim milk powder as the starting concentration, and then diluted by 3-fold gradient (11 gradients in total), and a blank well was set up and only the diluent was added. It was incubated at 37° C. for 1 h at 100 μL/well. The liquid in the well was discarded, washed 4 times with a plate washer, and patted dry on a flat paper. Goat anti-human IgG Fc was diluted with 3% skim milk powder at 1:20000, and incubated at 37° C. for 1 h at 100 μL/well. It was washed 6 times with a plate washer, and patted dry on a flat paper. TMB color developing solution was added at 100 μL/well, and wrapped with aluminum foil. Color development was performed at 37° C. in the dark for 8 min. Termination solution 1M HCl was added to terminate the color development reaction at 100 μL/well. Readings were taken at 450 nm on an ELISA reader.

[4] = target: T2, Human-TNFR2-His; test: ELISA: Human-TNFR2-His coated (0.1 ug/mL), antibody titrated, goat anti-human IgG Fc detection (Example 2)
Method: (§2) Human-TNFR2-His (manufacturer: SINO, CAT: 10417-H08H, LOT: LC15NO0412) was diluted to 0.1 μg/mL with a coating solution (1×PBS, pH7.4), and coated in 96-well ELISA plate at 100 µL/well overnight at 4° C. The coating solution was poured off. Each well was washed with 1×PBST at 300 μL, washed 4 times with a plate washer, and patted dry on a flat paper. It was blocked with 3% skim milk powder at 300 μL/well, and incubated at 37° C. for 1 h. The blocking solution was poured off, washed 4 times with a plate washer, and patted dry on a flat paper. Negative control and positive control were set up. […] The positive control and antibody were diluted to 10 μg/mL with 3% skim milk powder as the starting concentration, and then diluted by 3-fold gradient (11 gradients in total), and a blank well was set up and only the diluent was added. It was incubated at 37° C. for 1 h at 100 μL/well. The liquid in the well was discarded, washed 4 times with a plate washer, and patted dry on a flat paper. Goat anti-human IgG Fc was diluted with 3% skim milk powder at 1:10000, and incubated at 37° C. for 1 h at 100 μL/well. It was washed 6 times with a plate washer, and patted dry on a flat paper. TMB color developing solution was added at 100 μL/well, and wrapped with aluminum foil. Color development was performed at 37° C. in the dark for 8 min. Termination solution 1M HCl was added to terminate the color development reaction at 100 μL/well. Readings were taken at 450 nm on an ELISA reader.

[5] = target: T2, Human-TNFR2-His; test: as above; remark: listed apart in the source
Method: as §2

[6] = target: T4, Human 4-1BB His; test: ELISA: Human 4-1BB His coated (0.2 ug/mL), antibody titrated, goat anti-human IgG Fc detection (Example 3); remark: listed apart in the source
Method: as §1

[7] = target: T4, Human 4-1BB His; test: as above; remark: listed apart in the source
Method: as §1

[8] = target: T2, Human-TNFR2-His; test: ELISA: Human-TNFR2-His coated (0.1 ug/mL), antibody titrated, goat anti-human IgG Fc detection (Example 2); remark: listed apart in the source
Method: as §2

[9] = target: T2, Human-TNFR2-His; test: as above; remark: listed apart in the source
Method: as §2

T4 sequence (Q07011 24-186 limits assumed): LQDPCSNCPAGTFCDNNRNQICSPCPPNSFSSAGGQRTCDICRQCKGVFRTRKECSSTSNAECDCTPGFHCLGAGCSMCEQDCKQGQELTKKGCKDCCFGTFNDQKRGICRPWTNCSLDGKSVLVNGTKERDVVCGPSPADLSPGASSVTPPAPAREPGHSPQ
T3 sequence (Q07011 24-186 limits assumed): as above

EC50 (read off the curve) [1] [nM]	EC50 (read off the curve) [2] [nM]	EC50 (read off the curve) [3] [nM]	EC50 (read off the curve) [4] [nM]	EC50 (read off the curve) [5] [nM]	EC50 (read off the curve) [6] [nM]	EC50 (read off the curve) [7] [nM]	EC50 (read off the curve) [8] [nM]	EC50 (read off the curve) [9] [nM]	Binder
~0.2	~0.3	~0.1	~0.6	–	–	–	–	–	Antibody K (bispecific antibody, human IgG1, kappa, IgG1 subtype; full-length 4-1BB antibody with TNFR2 VHH at the C-terminus of the light chains) light: DIQMTQSPSSLSASLGDRVTISCSASQGISNYLNWYQQKPDGTVKLLIYYTSTLHSGVPSRFSGSGSGTDYTLTISSLQPEDIATYYCQQYSKLPWTFGGGTKLEIKRTVAAPSVFIFPPSDEQLKSGTASVVCLLNNFYPREAKVQWKVDNALQSGNSQESVTEQDSKDSTYSLSSTLTLSKADYEKHKVYACEVTHQGLSSPVTKSFNRGECGGGGSGGGGSEVQLVESGGGLVQPGGSLRLSCAASGSRLDYYAVAWFRQAPGKEREEVSCITYSGGSTNYAESVKGRFTISRDNSKNTLYLQMNSLRAEDTAVYYCTTEPYGSSCPLSGYDTWGQGTLVTVSS heavy: not shown
–	~0.3	~0.3	–	–	–	–	–	~0.1	Antibody N (bispecific antibody, human IgG1, kappa, IgG1 subtype; full-length 4-1BB antibody with TNFR2 VHH at the N-terminus of the light chains) light: EVQLVESGGGLVQPGGSLRLSCAASGSRLDYYAVAWFRQAPGKEREEVSCITYSGGSTNYAESVKGRFTISRDNSKNTLYLQMNSLRAEDTAVYYCTTEPYGSSCPLSGYDTWGQGTLVTVSSGGGGSGGGGSGGGGSDIQMTQSPSSLSASLGDRVTISCSASQGISNYLNWYQQKPDGTVKLLIYYTSTLHSGVPSRFSGSGSGTDYTLTISSLQPEDIATYYCQQYSKLPWTFGGGTKLEIKRTVAAPSVFIFPPSDEQLKSGTASVVCLLNNFYPREAKVQWKVDNALQSGNSQESVTEQDSKDSTYSLSSTLTLSKADYEKHKVYACEVTHQGLSSPVTKSFNRGEC heavy: not shown

Further lines, the binder ahead of its results:

Binder	EC50 (read off the curve) [1] [nM]	EC50 (read off the curve) [2] [nM]	EC50 (read off the curve) [3] [nM]	EC50 (read off the curve) [4] [nM]	EC50 (read off the curve) [5] [nM]	EC50 (read off the curve) [6] [nM]	EC50 (read off the curve) [7] [nM]	EC50 (read off the curve) [8] [nM]	EC50 (read off the curve) [9] [nM]
Antibody G (bispecific antibody, human IgG1, kappa, IgG1 subtype; full-length TNFR2 antibody with 4-1BB scFv at the N-terminus of the heavy chains) light: DIVMTQSPATLSVSPGERATLSCKASQNVGSNVDWYQQKPGQSPRVLIYKASIRYTGIPARFSGSGSGTEFTLTISILQSEDFAVYFCMQSKSYPITFGQGTKLEIKRTVAAPSVFIFPPSDEQLKSGTASVVCLLNNFYPREAKVQWKVDNALQSGNSQESVTEQDSKDSTYSLSSTLTLSKADYEKHKVYACEVTHQGLSSPVTKSFNRGEC heavy: not shown	~0.2	~0.5	–	–	~0.1	~0.07	–	–	–
Antibody E2 (bispecific antibody, human IgG4 S228P, kappa, IgG4 subtype; same order as E1) light: DIVMTQSPATLSVSPGERATLSCKASQNVGSNVDWYQQKPGQSPRVLIYKASIRYTGIPARFSGSGSGTEFTLTISILQSEDFAVYFCMQSKSYPITFGQGTKLEIKRTVAAPSVFIFPPSDEQLKSGTASVVCLLNNFYPREAKVQWKVDNALQSGNSQESVTEQDSKDSTYSLSSTLTLSKADYEKHKVYACEVTHQGLSSPVTKSFNRGEC heavy: not shown	–	–	–	–	–	–	0.3 to 0.4	~0.2	–
